In PMC7772773:

Target: EGFP-RABL2B (UniProt Q9UNT1)
Assay: co-immunoprecipitation (IP anti-EGFP, Western blot anti-Myc), IP/input band quantitation
Conditions: lysates from HEK293T cells; Input is 2.5% of lysate used for IP; parent: 100

Sequence of EGFP-RABL2B (Q9UNT1 whole entry): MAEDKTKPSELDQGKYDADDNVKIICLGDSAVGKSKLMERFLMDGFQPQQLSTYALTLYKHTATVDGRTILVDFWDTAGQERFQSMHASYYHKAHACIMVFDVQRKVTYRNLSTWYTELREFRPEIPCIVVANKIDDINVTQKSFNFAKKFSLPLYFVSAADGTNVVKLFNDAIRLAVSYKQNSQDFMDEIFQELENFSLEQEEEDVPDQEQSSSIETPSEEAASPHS

percent of parent: 29%
Substance: CD8α-(HTR6-IC3)-myc R216A; K217A; Q218A
